Experimental data: the RNAGym collection of RNA variant scans (doi:10.7554/elife.80360)

B1: HDV Ribozyme (parent)
chain: GGCCGGCAUGGUCCCAGCCUCCUCGCUGGCGCCGGCUGGGCAACAUUCCGAGGGGACCGUCCCCUCGGUAAUGGCGAAUGGGACCCA

Variants of: B1
Test: self-cleavage, relative activity (ratio to wild type); higher = more cleavage; co-transcriptional

Variant | self-cleavage
G25U C61G | 0.0978
U12G C57A | 0.985
G40C U72A | 0.124
A16C G38A | 0.0504
C22A G59A | 0.359
C58G G68A | 1.03
G29A G81U | 0.125
G17C U79C | 0.427
A56U U72C | 0.489
A71C C75A | 0.0852
G54A A77G | 0.614
G35A C63A | 0.332
C3A G67C | 0.61
C4A C21A | 0
G52C G82C | 0.141
C26A U72A | 0.692
U79A A83G | 0.375
C36U U37C | 0.867
U72G G76A | 0.743
C48A A70C | 0.957
G38U C57U | 0.126
U12C A43G | 0.0437
G5A G50C | 0.225
C4A U72G | 0.111

Variant | self-cleavage
C13G G31C | 0
U20C U27A | 0.196
G50U C75U | 0.13
C14U C75U | 0.138
C44U C48G | 0.567
G73A G74C | 0.176
U9G G74U | 0.415
A56C C75G | 0.115
A16U A51G | 1.04
C44G G76U | 1.03
A42G A43G | 0
G35C C36U | 0.108
U20A C26U | 0.158
U12G U79C | 0.243
C41G A71C | 0.0723
C22G G38A | 0.0231
C30A U69A | 0.353
G2U C4G | 0.0228
U12A G31U | 0.0811
A51G G53U | 0.795
C44A G55A | 0.554
C33U G39C | 0
A16G G38C | 0.142
A51C G55U | 0.944

Variant | self-cleavage
C30G C58U | 0.0906
G54A C84A | 0.496
C33A C63U | 0.503
A8U U27A | 0.578
G53A C57U | 1.06
G40U C41U | 0.937
U72G C84A | 0.6
C30A G76C | 0.464
C21G C58U | 0.0314
G55U C57U | 1.11
G6A G35U | 0.148
A45U G73C | 0.62
G31U U60A | 0.379
G25A U69C | 0.302
C18A A45U | 0.172
C14A G59U | 1.05
C4U A83G | 0.464
A45C A51C | 0.875
U47C A77U | 0.285
G38A G80A | 0.0372
G73C C84G | 0.086
C15A G38C | 0.0831
C30G A87G | 0.0702
G25A A70G | 0.0791

Variant | self-cleavage
G6C C21U | 0.0573
G5U C58A | 0.277
U27A A71C | 1.03
G38C A45C | 0.0678
G11U G81A | 0.0623
C4G G6U | 0.0237
G35C G82C | 0.0519
G55U G68U | 1
C19G C64G | 0.113
A43U A77U | 0.151
G11U A51G | 0.415
C21A C44A | 0.0604
C32G G74C | 0.166
C30U G50A | 0.728
G55U U69A | 0.869
G6U C75A | 0.0875
G34U C48U | 0.112
A56G G59A | 0.849
C41U G53U | 1.1
C18A A78C | 0.0978
A45C G52C | 0.752
G6C C30U | 0.0723
G34A A77G | 0.0639
G1U C19G | 0.348

Variant | self-cleavage
C49A C84U | 0.686
C3G U46C | 0.373
A51U C84G | 0.443
C57G U72A | 0.635
G73C U79C | 0.161
C3A U65G | 0.718
G2A G35U | 0.0602
A45G A51C | 0.987
A8G G25A | 0.0639
G10U C86U | 0.867
G2U A56U | 0.016
G40C C61A | 0.256
C15U C41A | 0.962
G55U G73U | 0.295
G17C C33G | 0
C26G C63A | 0.748
C62U C66G | 0.746
G2U C21G | 0.0594
C3A C57A | 0.659
G25U C44G | 0.249
C33A A45C | 0.133
G54A C61U | 1.04
A8U C44A | 0.449
G17C A78U | 0.18

Variant | self-cleavage
G25C G28A | 0.0297
C18U A51U | 0.701
A16U G29C | 0.104
G25C C26U | 0
G35A G55A | 0.736
G39C G76C | 0.514
G39C C85U | 0.405
U23C U65C | 1.02
C48U A77G | 0.612
A56U G59C | 1.01
G53U C62G | 0.793
G11A C63U | 0.376
G40C G50U | 0.269
C4G U27G | 0.268
G1U G54U | 0.358
A56G G67C | 1.05
G6A A71G | 0.762
C32G G67U | 0.0831
U46G A71C | 0.982
C15A C22U | 0.231
U9C U69A | 1.02
G40A C44U | 0.582
G1C G80A | 0.0405
G53U G73C | 0.428

Variant | self-cleavage
C14G G28C | 0.0415
G5C U47G | 0.0536
G17A U60C | 0.522
C41G G54A | 0.831
G35C U72G | 0.346
A77C U79C | 0.138
C30U U72C | 0.0959
U12C C58G | 0.208
G50U G55A | 1.11
C4G C61U | 0.475
C15G A56U | 0.914
C30U G35U | 0.0219
C14G A77C | 0
C24U G31A | 0.169
C44U G80C | 0.242
G34U A43G | 0.0978
G1C C58G | 0.199
G17U G76U | 0.749
G28A C85A | 0.0369
G55A C66A | 1.07
U9A G55C | 1.26
C32U C66A | 0.991
U72C C75U | 0.192
